In patent publication US9598677B2, “Use of human biliverdin reductase and fragments thereof for the treatment of protein kinase C-delta and ERK related conditions” (University of Rochester, priority 2009, dated 2017):
Ends that are not written are not given here. * marks the point of attachment. Myristoyl = CCCCCCCCCCCCCC(=O)*

Experiments:
PKC-ζ = biological target: T1, PKC-ζ (Homo sapiens, UniProt Q05513); assay: PKC-ζ kinase assay in vitro; type: biochemical; conditions: MBP substrate, higher concentrations required than for PKC-δ, FIG. 5D
T1 construct: purchased Millipore
T1 sequence (Q05513 1-592): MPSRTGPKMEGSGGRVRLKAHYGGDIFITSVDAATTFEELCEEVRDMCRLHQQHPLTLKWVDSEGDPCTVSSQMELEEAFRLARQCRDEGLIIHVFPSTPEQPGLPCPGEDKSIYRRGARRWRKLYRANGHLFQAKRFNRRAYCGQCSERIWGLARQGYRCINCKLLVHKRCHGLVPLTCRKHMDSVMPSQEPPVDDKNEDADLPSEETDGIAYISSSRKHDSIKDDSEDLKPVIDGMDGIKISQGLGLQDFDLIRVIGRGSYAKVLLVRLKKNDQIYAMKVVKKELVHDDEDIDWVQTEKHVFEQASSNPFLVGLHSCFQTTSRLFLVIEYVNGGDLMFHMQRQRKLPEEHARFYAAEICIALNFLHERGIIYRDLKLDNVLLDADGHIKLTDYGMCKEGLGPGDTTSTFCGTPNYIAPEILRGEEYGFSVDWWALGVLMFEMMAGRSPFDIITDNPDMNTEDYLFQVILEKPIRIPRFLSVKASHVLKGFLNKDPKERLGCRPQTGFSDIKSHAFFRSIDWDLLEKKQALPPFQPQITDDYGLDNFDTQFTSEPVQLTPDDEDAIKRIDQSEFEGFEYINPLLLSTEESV
Procedure: (§1) Measurement of PKC-β and PKC-ζ activities. Recombinant PKC-βII (Calbiochem) was assayed in vitro in 20 mM HEPES pH 7.2, 15 mM MgCl2, 0.2 mM CaCl2, 1 mM DTT, 25 mM β-glycerophosphate, 50 μg/ml phosphatidylserine and 5 μg/ml diacylglycerol, using 12.5 μM MBP as substrate, using 5 ng of enzyme per 50 μl reaction. 100 μM ATP (containing [γ^32P]-ATP (as above) was used to start the reaction, and incorporation was determined using p81 filter binding (Maines et al., “Human Biliverdin Reductase: A Previously Unknown Activator of Protein Kinase C-βII,” J. Biol. Chem. 282:8110-8122 (2007), which is hereby incorporated by reference in its entirety). Similarly, recombinant PKC-ζ(Millipore) was assayed in 20 mM MOPS pH 7.2, 15 mM MgCl2, 0.2 mM EDTA, with 12.5 μM MBP as substrate, again using 5 ng of enzyme per 50 μl reaction (Lerner-Marmarosh et al., “Regulation of TNF-alpha-Activated PKC-zeta Signaling By the Human Biliverdin Reductase: Identification of Activating and Inhibitory Domains of the Reductase,” FASEB J. 21:3949-3962 (2007), which is hereby incorporated by reference in its entirety). Otherwise, reaction conditions were as for PKC-βII.

PKC-βII = biological target: T2, PKC-βII (Homo sapiens, UniProt P05771); assay: PKC-βII kinase assay in vitro; type: biochemical; conditions: MBP substrate, concentrations that markedly inhibited PKC-δ, FIG. 5D
T2 construct: purchased Calbiochem
T2 sequence (P05771 1-673 isoform P05771-2): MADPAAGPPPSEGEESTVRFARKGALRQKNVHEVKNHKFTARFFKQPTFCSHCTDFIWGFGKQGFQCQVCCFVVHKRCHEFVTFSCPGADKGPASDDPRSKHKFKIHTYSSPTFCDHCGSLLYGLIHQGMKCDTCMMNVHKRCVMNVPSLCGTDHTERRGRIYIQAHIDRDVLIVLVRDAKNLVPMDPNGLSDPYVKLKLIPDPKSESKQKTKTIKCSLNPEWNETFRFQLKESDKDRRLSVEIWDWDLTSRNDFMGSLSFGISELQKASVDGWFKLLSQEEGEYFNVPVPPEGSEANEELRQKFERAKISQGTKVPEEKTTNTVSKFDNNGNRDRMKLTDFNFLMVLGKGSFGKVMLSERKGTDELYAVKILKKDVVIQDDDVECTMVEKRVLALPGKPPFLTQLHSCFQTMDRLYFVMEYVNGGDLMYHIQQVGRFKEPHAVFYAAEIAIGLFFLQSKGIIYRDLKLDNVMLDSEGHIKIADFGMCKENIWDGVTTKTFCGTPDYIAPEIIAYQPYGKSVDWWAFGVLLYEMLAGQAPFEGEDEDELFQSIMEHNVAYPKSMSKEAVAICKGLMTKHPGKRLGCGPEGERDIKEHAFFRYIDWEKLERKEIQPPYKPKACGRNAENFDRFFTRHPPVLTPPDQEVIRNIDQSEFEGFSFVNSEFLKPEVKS
Procedure: as §1

PKC-δ = PKC-δ (Homo sapiens, UniProt Q05655); assay: PKC-δ activity assay in situ in 293A cells; type: cell-based; parameters: The human PKC-δ open reading frame was also cloned in the same vectors; expressed in transfected cells; host or cells: HEK 293A; conditions: myristoylated peptide, last 2 h of starvation, FIG. 5B
PKC-δ, sequence (Q05655 whole entry): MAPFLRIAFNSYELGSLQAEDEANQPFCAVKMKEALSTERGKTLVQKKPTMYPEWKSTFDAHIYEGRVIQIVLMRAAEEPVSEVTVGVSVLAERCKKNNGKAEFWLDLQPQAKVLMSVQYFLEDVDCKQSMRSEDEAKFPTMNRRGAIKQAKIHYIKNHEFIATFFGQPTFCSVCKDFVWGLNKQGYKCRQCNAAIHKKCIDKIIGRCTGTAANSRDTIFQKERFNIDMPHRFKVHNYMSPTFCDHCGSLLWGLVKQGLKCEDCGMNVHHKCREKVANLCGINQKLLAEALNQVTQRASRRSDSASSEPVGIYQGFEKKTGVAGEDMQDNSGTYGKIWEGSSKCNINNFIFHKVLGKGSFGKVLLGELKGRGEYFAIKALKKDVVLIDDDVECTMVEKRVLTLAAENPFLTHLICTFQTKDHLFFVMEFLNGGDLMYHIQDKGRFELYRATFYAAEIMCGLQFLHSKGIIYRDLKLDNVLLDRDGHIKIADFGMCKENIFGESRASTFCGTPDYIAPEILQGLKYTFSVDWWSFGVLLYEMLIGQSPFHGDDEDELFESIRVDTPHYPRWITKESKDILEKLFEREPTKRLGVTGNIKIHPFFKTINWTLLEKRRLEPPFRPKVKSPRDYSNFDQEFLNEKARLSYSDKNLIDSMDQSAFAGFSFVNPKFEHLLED
Procedure: The PKC-δ activity assay in situ was performed by a modification of procedures detailed by Williams and Schrier (Williams et al., Glucose-Induced Protein Kinase C Activity Regulates Arachidonic Acid Release and Eicosanoid Production by Cultured Glomerular Mesangial Cells,” J. Clin. Invest. 92:2889-2896 (1993), which is hereby incorporated by reference in its entirety). Cells were seeded into 48-well plates and transfected with 0.1 μg/well pcDNA3-hBVR. After 24 h, the medium was replaced with a starvation medium (0.1% serum) and incubation continued for another 24 h to synchronize cells. In some wells, PKC inhibitor Rottlerin (20 μM) was added 30 min before addition of PMA (100 nM) for 15 min. In some wells, hBVR-derived peptides were introduced to cells in their myristoylated form. Cells were washed with medium and incubated for 10 min at 30° C. in 50 μl of kinase assay buffer (137 mM NaCl, 5.4 mM KCl, 10 mM MgCl2, 0.3 mM Na2HPO4, 0.4 mM KH2PO4, 25 mM β-glycerophosphate, 5.5 mM D-glucose, 5 mM EGTA, 1 mM CaCl2, 20 mM HEPES (pH 7.2), 50 μg/ml digitonin, 120 μg/ml of PKC-δ specific substrate (ARRKRKGSFFGG; SEQ ID NO: 52) and 100 μM ATP labeled with 10 μCi/ml [γ-^32P]-ATP). The reaction was stopped with the addition of 25 μl of ice-cold 30% (wt/vol) TCA. The TCA-soluble fraction samples were transferred to p81 phospho-cellulose filters. […]

effect of inhibitory peptide on PKC-ζ activity (PKC-ζ): responsive | effect of inhibitory peptide on PKC-βII activity (PKC-βII): essentially unaffected | PKC-δ activity in cells transfected with pcDNA-PKC-δ and stimulated with PMA (PKC-δ): inhibitory activity
Sequence: KRNRYLSF (Myristoyl-KRNRYLSF)
